We go through one substance from article PMC3983572.

As usually defined, the Ki is a dissociation constant, usually derived from enzyme kinetics or from competition with a known ligand.

For this experiment, the target named is protein interacting with C kinase 1 (PICK1), recombinant full-length (UniProt Q9EP80). Put plainly: fluorescence polarisation.
Sequence of UniProt Q9EP80 (Q9EP80 whole entry): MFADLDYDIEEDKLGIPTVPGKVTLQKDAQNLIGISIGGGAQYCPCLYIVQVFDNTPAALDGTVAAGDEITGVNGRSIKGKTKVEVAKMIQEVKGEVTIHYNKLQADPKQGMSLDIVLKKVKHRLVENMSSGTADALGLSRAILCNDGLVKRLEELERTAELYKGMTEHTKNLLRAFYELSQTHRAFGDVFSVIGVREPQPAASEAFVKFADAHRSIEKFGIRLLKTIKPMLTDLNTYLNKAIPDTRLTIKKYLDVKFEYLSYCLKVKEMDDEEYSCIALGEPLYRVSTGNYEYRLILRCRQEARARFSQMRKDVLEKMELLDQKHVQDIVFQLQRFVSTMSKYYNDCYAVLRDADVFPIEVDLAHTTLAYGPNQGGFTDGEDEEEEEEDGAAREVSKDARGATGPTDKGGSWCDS

Consider unlabeled GluA2 peptide, for which the Ki is 24 µM.
